Data published in patent publication US20250333467A1 (TECTONIC OPERATING, published 2025).
Substitutions are numbered along the chain they refer to. Values joined by “and” are separate entries in the source; they are usually repeats but may differ in a detail not shown here. Equal entries are not always repeated. Each block holds one binder with its values, some of them ahead of it.

What was measured:
Assay in all cases: cell-based or functional assay
[1] = target: T1, human RXFP1 (human, UniProt Q9HBX9 1-757)
T1 sequence (looked up): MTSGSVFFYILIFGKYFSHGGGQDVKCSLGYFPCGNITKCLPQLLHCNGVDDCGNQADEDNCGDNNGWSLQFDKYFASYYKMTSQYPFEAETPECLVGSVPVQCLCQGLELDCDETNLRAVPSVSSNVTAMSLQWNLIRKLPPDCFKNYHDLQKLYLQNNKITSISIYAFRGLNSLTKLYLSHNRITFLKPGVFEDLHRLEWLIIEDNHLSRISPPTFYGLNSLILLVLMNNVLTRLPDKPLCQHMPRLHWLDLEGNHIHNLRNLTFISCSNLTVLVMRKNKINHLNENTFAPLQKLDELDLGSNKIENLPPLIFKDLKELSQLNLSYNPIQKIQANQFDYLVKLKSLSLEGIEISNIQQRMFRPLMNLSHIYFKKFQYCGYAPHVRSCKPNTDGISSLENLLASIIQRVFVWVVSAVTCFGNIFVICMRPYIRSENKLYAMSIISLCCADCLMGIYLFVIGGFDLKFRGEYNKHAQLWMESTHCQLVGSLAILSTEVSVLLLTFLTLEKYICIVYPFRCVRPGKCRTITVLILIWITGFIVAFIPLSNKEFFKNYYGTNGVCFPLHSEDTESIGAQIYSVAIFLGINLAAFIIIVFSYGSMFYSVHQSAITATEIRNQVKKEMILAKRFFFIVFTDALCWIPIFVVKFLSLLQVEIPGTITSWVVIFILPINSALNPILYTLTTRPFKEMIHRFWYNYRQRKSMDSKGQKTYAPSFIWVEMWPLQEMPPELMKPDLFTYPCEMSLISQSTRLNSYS

[2] = target: T1, human RXFP1; remark: listed apart in the source
[3] = target: T2, rat RXFP1 (rat, UniProt Q6R6I6 1-758)
T2 sequence (looked up): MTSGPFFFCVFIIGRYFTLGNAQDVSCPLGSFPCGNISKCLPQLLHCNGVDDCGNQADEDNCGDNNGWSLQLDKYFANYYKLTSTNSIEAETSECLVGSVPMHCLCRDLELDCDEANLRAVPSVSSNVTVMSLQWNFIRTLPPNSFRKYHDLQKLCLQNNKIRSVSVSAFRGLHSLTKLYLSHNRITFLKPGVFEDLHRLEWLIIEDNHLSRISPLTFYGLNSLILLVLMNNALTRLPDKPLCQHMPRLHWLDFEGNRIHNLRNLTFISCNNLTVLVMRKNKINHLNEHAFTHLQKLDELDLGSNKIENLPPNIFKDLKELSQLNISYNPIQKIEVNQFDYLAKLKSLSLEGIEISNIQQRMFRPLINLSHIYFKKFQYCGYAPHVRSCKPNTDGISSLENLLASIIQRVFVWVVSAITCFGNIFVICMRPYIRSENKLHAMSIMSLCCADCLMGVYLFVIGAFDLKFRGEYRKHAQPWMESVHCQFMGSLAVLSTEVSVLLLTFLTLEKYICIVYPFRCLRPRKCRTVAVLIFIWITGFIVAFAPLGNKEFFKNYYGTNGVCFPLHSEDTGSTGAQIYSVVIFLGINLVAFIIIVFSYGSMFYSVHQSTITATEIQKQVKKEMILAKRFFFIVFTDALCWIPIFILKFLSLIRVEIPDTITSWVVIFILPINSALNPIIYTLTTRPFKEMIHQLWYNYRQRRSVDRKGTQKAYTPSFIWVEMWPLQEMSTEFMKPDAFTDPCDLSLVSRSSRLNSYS

[4] = target: T1, human RXFP1; remark: listed apart in the source
[5] = target: human RXFP2 (human, UniProt Q8WXD0 1-754)
[6] = target: T1, human RXFP1; remark: listed apart in the source
[7] = target: T2, rat RXFP1; remark: listed apart in the source
[8] = target: T1, human RXFP1; remark: listed apart in the source
[9] = target: T3, cynomolgus monkey RXFP1 (cynomolgus monkey, UniProt H9ERA2 1-757 (rhesus entry))
T3 sequence: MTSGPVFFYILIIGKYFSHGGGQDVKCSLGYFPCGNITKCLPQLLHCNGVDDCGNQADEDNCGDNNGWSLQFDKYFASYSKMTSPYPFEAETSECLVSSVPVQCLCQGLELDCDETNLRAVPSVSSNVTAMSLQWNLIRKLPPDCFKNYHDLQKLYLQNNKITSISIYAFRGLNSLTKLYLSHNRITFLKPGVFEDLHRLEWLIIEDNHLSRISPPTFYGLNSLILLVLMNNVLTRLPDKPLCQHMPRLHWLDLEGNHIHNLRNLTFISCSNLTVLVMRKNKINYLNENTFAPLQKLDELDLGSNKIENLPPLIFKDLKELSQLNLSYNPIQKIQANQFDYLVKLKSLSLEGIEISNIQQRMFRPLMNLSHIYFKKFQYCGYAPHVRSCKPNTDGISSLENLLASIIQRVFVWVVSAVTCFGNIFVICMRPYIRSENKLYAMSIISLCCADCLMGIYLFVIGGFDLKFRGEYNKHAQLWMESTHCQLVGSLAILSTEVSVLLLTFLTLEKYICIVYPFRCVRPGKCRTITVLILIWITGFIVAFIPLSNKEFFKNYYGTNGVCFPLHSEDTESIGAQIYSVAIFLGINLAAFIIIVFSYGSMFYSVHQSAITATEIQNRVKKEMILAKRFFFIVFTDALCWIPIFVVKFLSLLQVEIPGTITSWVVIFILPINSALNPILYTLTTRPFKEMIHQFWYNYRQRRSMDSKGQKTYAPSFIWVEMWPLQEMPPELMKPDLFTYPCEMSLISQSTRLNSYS

[10] = target: T2, rat RXFP1; remark: listed apart in the source
[11] = target: T1, human RXFP1; remark: listed apart in the source

human RXFP2, sequence (Q8WXD0 whole entry): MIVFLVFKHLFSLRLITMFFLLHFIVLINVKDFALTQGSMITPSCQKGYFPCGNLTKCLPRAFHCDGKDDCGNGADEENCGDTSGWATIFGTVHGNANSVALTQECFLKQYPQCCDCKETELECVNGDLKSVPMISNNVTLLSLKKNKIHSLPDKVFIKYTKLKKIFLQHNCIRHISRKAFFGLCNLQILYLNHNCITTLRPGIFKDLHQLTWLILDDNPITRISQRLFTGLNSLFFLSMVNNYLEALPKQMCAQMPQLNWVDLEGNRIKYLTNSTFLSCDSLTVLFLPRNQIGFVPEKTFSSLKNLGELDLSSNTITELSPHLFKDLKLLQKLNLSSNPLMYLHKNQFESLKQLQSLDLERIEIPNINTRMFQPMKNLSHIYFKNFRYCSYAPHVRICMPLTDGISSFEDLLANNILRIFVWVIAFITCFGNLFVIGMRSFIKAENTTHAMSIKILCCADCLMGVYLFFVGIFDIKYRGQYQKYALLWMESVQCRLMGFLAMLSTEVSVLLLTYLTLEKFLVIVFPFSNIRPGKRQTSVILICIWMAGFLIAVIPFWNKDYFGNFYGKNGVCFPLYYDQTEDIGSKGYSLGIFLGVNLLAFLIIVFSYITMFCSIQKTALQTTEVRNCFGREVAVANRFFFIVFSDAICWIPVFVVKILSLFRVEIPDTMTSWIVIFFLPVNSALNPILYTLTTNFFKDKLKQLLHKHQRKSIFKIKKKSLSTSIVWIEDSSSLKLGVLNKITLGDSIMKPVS

B1: SEQ ID NO: 95 (Fc fusion)
chain: DKTHTCPPCPAPEAAGGPSVFLFPPKPKDTLMISRTPEVTCVVVDVSHEDPEVKFNWYVDGVEVHNAKTKPREEQYNSTYRVVSVLTVLHQDWLNGKEYKCKVSNKALAAPIEKTISKAKGQPREPQVYTLPPSRDELTKNQVSLTCLVKGFYPSDIAVEWESNGQPENNYKTTPPVLDSDGSFFLYSKLTVDKSRWQQGNVFSCSVLHEALHSHYTQKSLSLSPGEGGSDSWQEEVIKLCGRELVRAQIAICGKSTASDAAGAQADAGARQLYSALANKCCHVGCTKRSLAQFC
Potency (cAMP, transient hRXFP1 in HEK293) [1]: 6.8 nM
THP1 (endogenous RXFP1) cAMP EC50 [2]: 26 nM
Transient HEK293 hRXFP1 cAMP EC50 [2]: 10.9 nM
Transient HEK293 rRXFP1 cAMP EC50 [3]: 13.5 nM

B2: SEQ ID NO: 91 (Fc fusion)
chain: B1 chain with Q265D, D267N
Potency (cAMP, transient hRXFP1 in HEK293) [1]: 3.9 nM
THP1 (endogenous RXFP1) cAMP EC50 [2]: 30 nM
Transient HEK293 hRXFP1 cAMP EC50 [2]: 10.2 nM
Transient HEK293 rRXFP1 cAMP EC50 [3]: 12.4 nM

B3: SEQ ID NO: 93 (Fc fusion)
chain: B1 chain with Q265D
Potency (cAMP, transient hRXFP1 in HEK293) [1]: 11.1 nM
THP1 (endogenous RXFP1) cAMP EC50 [2]: 90 nM
Transient HEK293 hRXFP1 cAMP EC50 [2]: 19.1 nM
Transient HEK293 rRXFP1 cAMP EC50 [3]: 21.3 nM

B4: SEQ ID NO: 104 (Fc fusion)
chain: B1 chain with K255Q, D267Q
Potency (cAMP, transient hRXFP1 in HEK293) [1]: 2.8 nM
THP1 (endogenous RXFP1) cAMP EC50 [2]: 11 nM
Transient HEK293 hRXFP1 cAMP EC50 [2]: 6.17 nM
Transient HEK293 rRXFP1 cAMP EC50 [3]: 6.74 nM

The next lines start with the values.

cAMP response EC50, THP-1 (endogenous RXFP1) [4]: 0.07 nM and 0.4 ng/mL
cAMP response EC50, human RXFP1 stable in CHO-K1 [4]: 0.2 nM and 1 ng/mL
cAMP response EC50, human RXFP2 stable in CHO-K1 [5]: 10 nM and 90 ng/mL
EC50 for cAMP generation, recombinant human RXFP1 assay (average) [6]: 0.04 nM
EC50 for cAMP generation, recombinant rat RXFP1 assay (average) [7]: 0.1 nM
cAMP response EC50, human RXFP1 transient in HEK293 [8]: 0.05 nM and 0.3 ng/mL
cAMP response EC50, cynomolgus monkey RXFP1 transient in HEK293 [9]: 0.04 nM and 0.2 ng/mL
cAMP response EC50, rat RXFP1 transient in HEK293 [10]: 0.1 nM and 0.6 ng/mL
EC50, cAMP response in RXFP1 transfected HEK293 cells [11]: 0.042 nM
pEC50, cAMP response in RXFP1 transfected HEK293 cells [11]: 10.4
Potency (cAMP, transient hRXFP1 in HEK293) [1]: 0.1 nM
THP1 (endogenous RXFP1) cAMP EC50 [2]: 0.2 nM
Transient HEK293 hRXFP1 cAMP EC50 [2]: 0.039 nM
Transient HEK293 rRXFP1 cAMP EC50 [3]: 0.122 nM
B5: Wild-type human relaxin-2 (ligand)
chain 1: DSWMEEVIKLCGRELVRAQIAICGMSTWS
chain 2: QLYSALANKCCHVGCTKRSLARFC

Potency (cAMP, transient hRXFP1 in HEK293) [1]: 4.2 nM
THP1 (endogenous RXFP1) cAMP EC50 [2]: 49 nM
Transient HEK293 hRXFP1 cAMP EC50 [2]: 10 nM
Transient HEK293 rRXFP1 cAMP EC50 [3]: 15.1 nM
B6: SEQ ID NO: 313 (Fc fusion)
chain: DKTHTCPPCPAPEAAGGPSVFLFPPKPKDTLMISRTPEVTCVVVDVSHEDPEVKFNWYVDGVEVHNAKTKPREEQYNSTYRVVSVLTVLHQDWLNGKEYKCKVSNKALAAPIEKTISKAKGQPREPQVYTLPPSRDELTKNQVSLTCLVKGFYPSDIAVEWESNGQPENNYKTTPPVLDSDGSFFLYSKLTVDKSRWQQGNVFSCSVLHEALHSHYTQKSLSLSPGKGGSDSWQEEVIKLCGRELVRAQIAICGKSTGGGEGGGEGGGEGRQLYSALANKCCHVGCTKRSLAQFC
